In the DeepSol protein solubility set:

Assay: soluble on expression in E. coli; label from the status in PepcDB or PDB records

Row | Sequence | soluble on expression in E. coli
1 | MSLDKVTLLLNWYVYGEHAPFFYGKAKGLYAAEGIDLDIQEGRGSAVTIQAVAAGTVQFGYADVPTMIRAAAKGAPVVAVGVALQKSPMSVMGFSDKNIRKPEDIKGKIVATTPGDSMSQIWPLFLKQAGLRASDFQVVSGDAQTKLNAVANGRADLLLGYVMDQSMKLKDATGKDVRPIMFADYGIHMVSSGIITNKDLLKSNPDLVRRFMKATTAAFIGAEKDPGAAVDALLADLPKAGKRETLLEGFALTTPLYHTDETKGRPPFQVTDADMTSTVDLLIEYGGLEASAKDNTKSFYTRDYLPAAGNEGHHHHHH | soluble
2 | MSLDLEDKQQKLEQAILGALDEVQVLNEDRILRRYLDLIKATLRTNFYQPDGNGQNKSYFSFKFNPKAIPELPRPVPKYEIFVYSPRVEGVHLRGGKVARGGLRWSDREEDFRTEVLGLVKAQQVKNAVIVPVGAKGGFVPRRLPLGGSRDEIQAEAIACYRIFISGLLDITDNLKEGEVVPPANVVRHDEDDPYLVVAADKGTATFSDIANGIAAEYGFWLGDAFASGGSAGYDHKGMGITAKGAWVSVQRHFRERGIDVQKDNISVIGIGDMAGDVFGNGLLMSDKLQLVAAFNHMHIFIDPNPDAASSFVERQRLFNLPRSSWADYDAKLISAGGGIFLRSAKSIAITPEMKARFDIQADRLAPTELIHALLKAPVDLLWNGGIGTYVKSSKETHADVGDKANDGLRVDGRELRAKVVGEGGNLGMTQLARVEFGLHGGANNTDFIDNAGGVDCSDHEVNIKILLNEVVQAGDMTEKQRNALLVKMTDAVGALVLGNNYKQTQALSLAQRRARERIAEYKRLMGDLEARGKLDRALEFLPSDEELAERISAGEGHHHHHH | not soluble
3 | MSLDLGTTKYIIYAELIADGYVEKHDVIGAIFGQTEGLLGDELDLRELQKTGRVGRIDVELTNINGKSIAKITVPSSLDRIETSILAATLETIDRVGPCVATVKVIDIEDIRKKKREYIVERAKEILKQLMSNIDVNTIIEEVKESVRMGEIIEYGPERLPAGPAVDEGHHHHHH | soluble
4 | MSLDNESLLAILNNWSATNYAKGNYILREISSKFLAKISIDSNDYLLDAGCGDGSFTQMLANLVPDGYVLGLDRSKTMIDYANKHCRSINVRFDIGDIQEPIIYGPFDNILSFWCLHWTDLEKSLSNLYHVLKPGGKICAIFSSGKQSTLFEVLNSLQFQNLYPDVAKNVVQSKMMRENYSVQCRRALDNLPFKSISFVVEHCQVELPDLGLFENFIHGAPLFKDLPGKMYQDIVNGMVQFFDEYCKKKYGGKWVYETTPYFLTITREGHHHHHH | soluble
5 | MSLDQREILQKFLDEAQSKKITKEEFANEFLKLKRQSTKYKADKTYPTTVAEKPKNIKKNRYKDILPYDYSRVELSLITSDEDSSYINANFIKGVYGPKAYIATQGPLSTTLLDFWRMIWEYSVLIIGMACMEYEMGKKKCERYWAEPVEMQLEFGPFSVSCEAEKRKSDYIIRTLKVKFNSETRTIYQFHYKNWPDHDVPSSIDPILELIWDVRCYQEDDSVPICIHCSAGCGRTGVICAIDYTWMLLKDGIIPENFSVFSLIREMRTQRPSLVQTQEQYELVYNAVLELFKRQMDVIRDKHSGTESQAKHCIPEKNHTLQADSYSPNLPKSTTKAAKMMNQQRTKMEIKESSSFDFRTSEISAKEELVLHPAKSSTSFDFLELNYSFDKNADTTMKWQTKAFPIVGEPLQEGHHHHHH | not soluble
6 | MSLDREGLNTHLKSGATTVCRAWEVRRTDGVTLGFTDHDRDLSFDGMTFRAGTGLSARSLMQSTGLAVDNSEALGALSSDAVREADIESGRYDGAEVRAWLVNWADTTERALQFRGSLGEIRRAGGAFEAELRGLTEALNQPLGRVFQKPCSAVLGDAACKFDLSTAGYAVEIDVETLRDGQLFAWASLDGFAPGWFTGGRLTVLGGAGAGLWAPIRSDSLNARREITLWQPIRADIQPGDLVRLSAGCDKRQSTCRLKFDNLVNYQGFPDIPGEDWMVAVPKRTGQNTGGSRREGHHHHHH | soluble
7 | MSLDRRAQQRLALGEFLRARRRAAVRAELGLPDMPRSRTSGLRREEVAVQAGVSVTWYTWLEQGRDINPSRQVLDAIARALRLSPSEHDYVLALGGYTVDHAVTAGPPPPQIQRFLDALGGHPAFAITSDWGIAAWNTAYAALYPNIERVPPPDRNLLWLVFMDPAIRELLPDWDADSRRFLAEFRADAGPMVGEPSYTALVSRLSSESPHFATAWRAADIERFTSRERLFRHPVVGELRLEHHQVAPVDVPDIQIVAYLPEPGSVAAERLRRLVGQAGDTAREGHHHHHH | soluble
8 | MSLDSWNVLIADDEIIIREGIRDAINWSELQLTVVAEAEDGEEALELALEHQVDILLADLNMPIMNGLTLIKQLRTALPHCKVIIITGHDEFVYAQEAIRLSVVDYIIKPVDADQLYEVLKKVCIELTEGQNRKREETFTAKQLEKNITLLREQFCSNWVMGALTNEEVAEQLSFLQLPDTLPSFIGVIRCLNRLHLVGEGHHHHHH | soluble
9 | MSLDTENVKYRSITTKIELDDLIESLKKAKYISIDTETSSLDTYTAKLIGISISFKEFEGYYIPIEAKGKIYIEKNYIIQKFNNLFESNPKIIGQNYKFDYKILKNNGFNPIPPYFDTMIAAYLIDTNSKVSLDFLAEKYLMHKNIKYEDVIQKNDNFANISLEMATSYSSEDADITFRLFNIFTKKLKEDKLDKLMHEIEMPFNKVIIEMEENGIYLDKEYLKEYGKELGKELEAIENEIIKSIGIDFNLNSPKQMHEILFEKLNLKLPEKMKKDSTDIKVLESLREQHESIENLIKYRQIAKLKSTYTDNLIELINYKTNRLHTSFIQTKTATGRITSINPNLQNIPIKDEKGRKIRKAFKPENGNIFISADYSQIELAILAHLSQDEVLIKAFENNKDIHTETASKLFKIEEKEITPNLRRIAKSINFGIIYRMSDFRLAKELGITKEEAKGFINSYFDSYPKIKEFIINQINFVRNAGYSETILKRRRYIKEINSNNYLERSAAERIAINSIIQGSAADIMKIAMVKVFNEFKSKKMESKILLQVHDEMLIESPIEEENEVKKILKIMMETAYTLNLPLRANIETGKSWGEIHEGHHHHHH | soluble
10 | MSLDVFVLDTSVFTNPEIYRTFEEDQRGAMETFIHLALNSRAEFYMPTSVYTEMRKIMDVGELWAEFEMVVKIRSPRRFQLTVPADFLYEFIEELRYRINKGLRIAEEHTREASGCEDVGKLIARLREKYREALRQGILDSKEDVDVLLLAYELDGVLVSADEGLRTWADKIGIKLIDPKNFKNILESLVRHRFEGHHHHHH | soluble
11 | MSLDWHTLLTRERLGKALYSADELGRSPFHKDHDRIIFSGAFRRLGRKTQVHPVSSNDHIHTRLTHSLEVSCVGRSLGMRVGETLRDNLPDWCAPSDLGMIVQSACLAHDIGNPPFGHSGEDAIRHWFQQAAGRGWLDDMSDDERADFLNFEGNAQGFRVLTQLEYHQFDGGTRLTYATLGTYLKYPWSARHADALGYKKHKFGSYQSELPLLEQIARKLGLPQLEHQRWARHPLVYLMEAADDICYALIDLEDGLEMELLQYAEVEALLLDLVGEDLPETYRQLGPRDSRRRKLAILRGKAIEHLTNAAAHAFVEQQQALLAGQLPGDLVEHMHGPAKRCVLQAKDMARNKIFQDKRKTLHEIGAYTTLEILLNTFCGAALEQHGGRTPSFKSRRVLDLIGNNAPDPHASLHSAFLRMIDFIAGMTDSYASEMAREMTGRSSPTEGHHHHHH | soluble
12 | MSLDWTCKHHADLTLKELYALLQLRTEVFVVEQKCPYQEVDGLDLVGDTHHLMAWRDGQLLAYLRLLDPVRHEGQVVIGRVVSSSAARGQGLGHQLMERALQAAERLWLDTPVYLSAQAHLQAYYGRYGFVAVTEVYLEDDIPHIGMRRA | soluble
13 | MSLDYQGYLIDLDGTIYLGKEPIPAGKRFVERLQEKDLPFLFVTNNTTKSPETVAQRLANEFDIHVPASLVYTATLATIDYMKEANRGKKVFVIGEAGLIDLILEAGFEWDETNPDYVVVGLDTELSYEKVVLATLAIQKGALFIGTNPDKNIPTERGLLPGAGSVVTFVETATQTKPVYIGKPKAIIMERAIAHLGVEKEQVIMVGDNYETDIQSGIQNGIDSLLVTSGFTPKSAVPTLPTPPTYVVDSLDEWTFEGHHHHHH | soluble
14 | MSLEAPVYKEIFGAVKIYELQKVIKMDTETEDVPMFTVQNLPREDIYKTIGEMAIIVPMKNEKLHLVDGVLKAIPHKSPIIIVSNSKRKGPNRFKQEVDLVKHFCNLTHSKVIMIHQRDPGLAEAFRETGYEDILDEKGLVRSGKGEGMLIGIMLAKAIGAKYVGFVDADNYIPGAVNEYVKDYAAGFLMSESEYAMVRLHWRHKPKVSRGTLYFKKWGRVSEITNRYLNQLISEKTAFETTIMVTGNAGEHAMTMKLAEILPFSTGYSIEPYEIVYLLERFGSWENVEEFQDVFDQGIEIFQIETLNPHFHEDKGQEHVKEMVLLSLTTIYHSKLASERLKRQILEDLRMHGIIKEDEEPPKPRVMRPIKDIDIKKWMKTLESNQETLLRFDLEGHHHHHH | soluble
15 | MSLEARGLNVTIMKLDPYINVDPGTMSPTQHGEVFVTQDGAETDLDLGHYERFIRTKMTKRNNFTTGKIYSEVLRKERRGDYLGATIQVIPHITNEIKDRVIAGAQGHDVVIVEVGGTVGDIESLPFLEALRQLAVQVGREHTLFMHLTLVPYIPTAGEVKTKPTQHSVKELLSIGIQPDVLICRSDRMIPPNERAKIALFCNVAERAVISLKDVNSIYQIPALLKSQGLDDFVCERFRLTCPEADLTEWEQVLYKQANPVGEVTIGMVGKYTELPDAYKSVNEALKHAGLTNRLSVNIKYIDSQDVETKGVEVLKGIDGILVPGGFGYRGVEGKIRTAQYARENKIPYLGICLGMQIALIEYARNVAGLTKANSSEFDKDCEQPVVALITEWQDAEGNTEVRTDESDLGGTMRLGAQQCHLVSGSRARELYGKETIEERHRHRYEVNNTLLPQIEKAGLKVTGLSADKKLVEIIEVPNHPWFVACQFHPEFTSTPRDGHPLFAGFVKAAYENHKKSVKEGHHHHHH | not soluble
16 | MSLEDVIEKLRELNEPVPVPLELPEEELLVEIEEELLIGIPAEFREFLLLVSDVVYGRLEPVTVTDPHSHTYLPEVAATAWDLGVPRELIPLCEDDGSYYCVAEDGEVVLWADGDLTDESWDSVWVWARDVWLESEGHHHHHH | soluble
17 | MSLEEATVEDIMIPRTEIVGIDLDDPWSETLERLTNSQYTRMPVYRGTVDHVMGFVHVRRIVGDLVRGNFTPEDLQARLKEPFFIPEGTGLHTQLLKFQRQRERVGLVVDEYGEILGLAALDDILEEIVGEFTTDPGTLTRSINRQDDGTYLVEGSATVRELNRVLGWELETSGPKTLNGLILERLETIPEAGTSLLIDGYPVTIVQTQGNRVKTAEIQPERPPSVQREGHHHHHH | soluble
18 | MSLEEAVDLSVLYVEDDELSRSGIFNALKRKVKNIHFAANGQEGLEVFKEHRPDVVITDIKMPLLNGLEMAKQILEMEPSVEIIVATAFEDAELFKRAIDLDVDKYLTKPLDVTQILMHLKRIEMQKRLEREFEVYSRALNEVASIFWFDLELECLKVNPRAIASGGEHGVENEKLKEMARLALEKGGRHQEGNKIFSVAFNVAKEPKGFCLCVMESMEEGHHHHHH | soluble
19 | MSLEEKPKYKRILLKLSGEAFAGEQGYGIDPAFLEYISHEIKNVYDLGVQVAIVIGGGNIFRGFQGKEIGVDRATADYMGMLATVINALALQSALENHVNIPTRVLSAIEMRQVAEPYIRRRAIRHLEKGRIVIFAGGTGNPFFSTDTAAALRAAEIGAEVLIKATKVGGIYDKDPEKYPDAVLIKEISYLEVINMGLKVMDHTALTLCKENEIPIIVLNVKEKGNLRRAVLGEEVGSVVRGEGHHHHHH | soluble
